{"source": "the MegaScale stability set (Tsuboyama et al. 2023)", "parents": {"B1": {"name": "6YSE (parent)", "chain": "HERALMVNRLQKLTRMLRVHPDPKWKQEQQELIKRLK"}, "B2": {"name": "r4_43_TrROS_Hall (parent)", "chain": "DLVTIKVPLENLEEIKKAAEKAGFKIVSISYDKENKEVTIVIEKKK"}}}
{"variants_of": "B1", "assay": "folding stability dG (cDNA display proteolysis); higher = more stable", "details": "PBS, room temperature", "units": {"folding stability dG": "kcal/mol"}}
{"variant": "L36F", "folding stability dG": 0.524}
{"variant": "L36Y", "folding stability dG": -0.212}
{"variant": "L36M", "folding stability dG": 0.478}
{"variant": "L36W", "folding stability dG": -0.411}
{"variant": "L36I", "folding stability dG": 0.873}
{"variant": "L36R", "folding stability dG": -0.888}
{"variant": "K34W", "folding stability dG": 0.902}
{"variant": "K34Y", "folding stability dG": 1.02}
{"variant": "K34R", "folding stability dG": 1.51}
{"variant": "K34H", "folding stability dG": 1.11}
{"variant": "K34F", "folding stability dG": 1.2}
{"variant": "K34N", "folding stability dG": 1}
{"variant": "K34Q", "folding stability dG": 1.25}
{"variant": "K34E", "folding stability dG": 1.14}
{"variant": "K34C", "folding stability dG": 1.59}
{"variant": "K34T", "folding stability dG": 1.27}
{"variant": "K34I", "folding stability dG": 1.31}
{"variant": "K34M", "folding stability dG": 1.34}
{"variant": "K34A", "folding stability dG": 1.37}
{"variant": "K34L", "folding stability dG": 1.15}
{"variant": "K34D", "folding stability dG": 0.366}
{"variant": "K34S", "folding stability dG": 1.07}
{"variant": "K34G", "folding stability dG": 0.802}
{"variant": "K34V", "folding stability dG": 1.03}
{"variant": "Q30H", "folding stability dG": 0.978}
{"variant": "Q30K", "folding stability dG": 0.968}
{"variant": "Q30I", "folding stability dG": 1.37}
{"variant": "Q30M", "folding stability dG": 1.42}
{"variant": "Q30V", "folding stability dG": 1.1}
{"variant": "Q30N", "folding stability dG": 0.979}
{"variant": "Q30Y", "folding stability dG": 1.04}
{"variant": "Q30R", "folding stability dG": 1.21}
{"variant": "Q30S", "folding stability dG": 1.11}
{"variant": "Q30T", "folding stability dG": 1.13}
{"variant": "Q30L", "folding stability dG": 1.52}
{"variant": "Q30W", "folding stability dG": 1.39}
{"variant": "K37G", "folding stability dG": 1.27}
{"variant": "K37I", "folding stability dG": 1.08}
{"variant": "K37W", "folding stability dG": 1.43}
{"variant": "K37V", "folding stability dG": 0.95}
{"variant": "K37E", "folding stability dG": 1.05}
{"variant": "K37T", "folding stability dG": 1.25}
{"variant": "K37Y", "folding stability dG": 1.74}
{"variant": "K37S", "folding stability dG": 1.19}
{"variant": "K37R", "folding stability dG": 1.55}
{"variant": "K37M", "folding stability dG": 1.7}
{"variant": "K37N", "folding stability dG": 1.24}
{"variant": "K37F", "folding stability dG": 1.68}
{"variant": "K37H", "folding stability dG": 1.19}
{"variant": "K37Q", "folding stability dG": 1.8}
{"variant": "K37D", "folding stability dG": 0.831}
{"variant": "K37L", "folding stability dG": 1.42}
{"variant": "I33E", "folding stability dG": -0.101}
{"variant": "I33N", "folding stability dG": 0.375}
{"variant": "I33Y", "folding stability dG": 0.751}
{"variant": "I33T", "folding stability dG": 0.17}
{"variant": "I33Q", "folding stability dG": -0.155}
{"variant": "I33R", "folding stability dG": 0.898}
{"variant": "I33G", "folding stability dG": -0.702}
{"variant": "I33S", "folding stability dG": -0.232}
{"variant": "I33A", "folding stability dG": 0.217}
{"variant": "I33L", "folding stability dG": 1.17}
{"variant": "I33F", "folding stability dG": 0.663}
{"variant": "I33M", "folding stability dG": 0.592}
{"variant": "I33K", "folding stability dG": 0.269}
{"variant": "I33W", "folding stability dG": 0.93}
{"variant": "I33V", "folding stability dG": 0.738}
{"variant": "I33H", "folding stability dG": -0.268}
{"variant": "E31T", "folding stability dG": 0.995}
{"variant": "E31V", "folding stability dG": 0.669}
{"variant": "E31Y", "folding stability dG": 1.1}
{"variant": "E31A", "folding stability dG": 1.2}
{"variant": "E31L", "folding stability dG": 1.08}
{"variant": "E31G", "folding stability dG": 0.441}
{"variant": "E31R", "folding stability dG": 1.15}
{"variant": "E31C", "folding stability dG": 1.69}
{"variant": "E31F", "folding stability dG": 1.01}
{"variant": "E31K", "folding stability dG": 0.805}
{"variant": "E31D", "folding stability dG": 1.38}
{"variant": "E31S", "folding stability dG": 0.996}
{"variant": "E31H", "folding stability dG": 0.812}
{"variant": "E31W", "folding stability dG": 1.4}
{"variant": "E31Q", "folding stability dG": 0.963}
{"variant": "E31N", "folding stability dG": 0.839}
{"variant": "E31I", "folding stability dG": 1.14}
{"variant": "E31M", "folding stability dG": 1.45}
{"variant": "L32I", "folding stability dG": 0.927}
{"variant": "L32M", "folding stability dG": -0.196}
{"variant": "L32W", "folding stability dG": -0.364}
{"variant": "L32Y", "folding stability dG": -0.525}
{"variant": "L32F", "folding stability dG": -0.201}
{"variant": "R35G", "folding stability dG": -0.14}
{"variant": "R35I", "folding stability dG": 1.58}
{"variant": "R35V", "folding stability dG": 1.14}
{"variant": "R35M", "folding stability dG": 0.84}
{"variant": "R35A", "folding stability dG": 1.24}
{"variant": "R35W", "folding stability dG": 1.42}
{"variant": "R35D", "folding stability dG": -0.514}
{"variant": "R35N", "folding stability dG": 0.739}
{"variant": "R35Y", "folding stability dG": 1.16}
{"variant": "R35S", "folding stability dG": 0.493}
{"variant": "R35Q", "folding stability dG": 1.19}
{"variant": "R35K", "folding stability dG": 1.51}
{"variant": "R35F", "folding stability dG": 1.18}
{"variant": "R35L", "folding stability dG": 1.73}
{"variant": "R35E", "folding stability dG": 0.729}
{"variant": "R35T", "folding stability dG": 0.734}
{"variant": "R35H", "folding stability dG": 0.82}
{"variants_of": "B2", "assay": "folding stability dG (cDNA display proteolysis); higher = more stable", "details": "PBS, room temperature", "units": {"folding stability dG": "kcal/mol"}}
{"variant": "V27D", "folding stability dG": 2.75}
{"variant": "V27A", "folding stability dG": 3.48}
{"variant": "E34V", "folding stability dG": 3.72}
{"variant": "A18W", "folding stability dG": 4.29}
{"variant": "K46A", "folding stability dG": 3.52}
{"variant": "K46S", "folding stability dG": 3.72}
{"variant": "I5F", "folding stability dG": 4.32}
{"variant": "I5G", "folding stability dG": 1.98}
{"variant": "E43G", "folding stability dG": 3.26}
{"variant": "E43P", "folding stability dG": 2.34}
{"variant": "E13A", "folding stability dG": 3.28}
{"variant": "E13T", "folding stability dG": 3.46}
{"variant": "K44M", "folding stability dG": 3.96}
{"variant": "K44T", "folding stability dG": 4.11}
{"variant": "K44V", "folding stability dG": 3.92}
{"variant": "K44G", "folding stability dG": 3.73}
{"variant": "K36A", "folding stability dG": 3.57}
{"variant": "K25S", "folding stability dG": 3.58}
{"variant": "N11E", "folding stability dG": 3.27}
{"variant": "N11T", "folding stability dG": 3.59}
{"variant": "I40H", "folding stability dG": -0.04}
{"variant": "I40Q", "folding stability dG": 0.343}
{"variant": "V38T", "folding stability dG": 3.23}
{"variant": "T4A", "folding stability dG": 3.92}
{"variant": "T4M", "folding stability dG": 3.65}
{"variant": "V7K", "folding stability dG": 3.01}
{"variant": "V7W", "folding stability dG": 3.44}
{"variant": "V7F", "folding stability dG": 3.46}
{"variant": "E37K", "folding stability dG": 3.45}
{"variant": "T39G", "folding stability dG": 2.85}
{"variant": "T39R", "folding stability dG": 3.57}
{"variant": "K45L", "folding stability dG": 3.95}
{"variant": "K45Y", "folding stability dG": 4.47}
{"variant": "E14S", "folding stability dG": 3.7}
{"variant": "A19G", "folding stability dG": 3.23}
{"variant": "Y31S", "folding stability dG": 2.83}
{"variant": "Y31Q", "folding stability dG": 3.23}
{"variant": "Y31P", "folding stability dG": 2.97}
{"variant": "D32W", "folding stability dG": 3.62}
{"variant": "D32C", "folding stability dG": 3.85}
{"variant": "I42N", "folding stability dG": 0.933}
{"variant": "I26W", "folding stability dG": 3.12}
{"variant": "S30C", "folding stability dG": 3.53}
{"variant": "S30N", "folding stability dG": 3.79}
{"variant": "K17E", "folding stability dG": 3.45}
{"variant": "K17W", "folding stability dG": 4.21}
{"variant": "L9I", "folding stability dG": 3.61}
{"variant": "L12P", "folding stability dG": 1.92}
{"variant": "L12Y", "folding stability dG": 3.64}
{"variant": "P8C", "folding stability dG": 3.58}
{"variant": "P8H", "folding stability dG": 4.12}
{"variant": "K33M", "folding stability dG": 3.72}
{"variant": "K33L", "folding stability dG": 3.8}
{"variant": "K21I", "folding stability dG": 3.93}
{"variant": "K21G", "folding stability dG": 3.83}
{"variant": "G23A", "folding stability dG": 3.54}
{"variant": "N35D", "folding stability dG": 3.73}
{"variant": "I15C", "folding stability dG": 3.45}
{"variant": "I15P", "folding stability dG": 1.54}
